Assay results published in publication PMC7975240.

Target: SARS-CoV-2 spike trimer (1–1208 aa) (SARS-CoV-2) (UniProt P0DTC2)
Experiment: SPR

## Toll-like receptor 4 (TLR4) (from UniProt O00206 24-839)
  Kd: 300 nM
